Source: publication PMC10826351

tested on: PbtAC (PbtA C-terminal domain) (Vibrio anguillarum RV22); assay: EMSA; details: 1 mM Tris pH 7.5, 155 mM KCl, 0.1 mM DTT, 5% glycerol, 5 mM MgCl2, 1 mM EDTA, 0.3 mg/mL BSA, 30 min at 20 C, scale: free probe band ratio to no-protein control

Compared with hcp1 promoter (P5), vanT promoter (P3) is higher in binding signal: 0.74 for the first, 0.81 for the second.

Going from PfrpC (Probe 9) to vipA promoter (P1?), the binding signal falls from 0.41 to 0.2.

Going from vgrG promoter (P2?) to PfrpA (Probe 1), the binding signal rises from 0.09 to 0.49.

First: hcp2 promoter (P6)
Second: LPS wzi(ab) promoter (P4)
The binding signal of the first is higher: 0.28 for the first, 0.26 for the second.

biological target: T1, PbtAC (PbtA C-terminal domain) (Vibrio anguillarum RV22) (UniProt A0A289GIJ0); assay: EMSA; details: 1 mM Tris pH 7.5, 155 mM KCl, 0.1 mM DTT, 5% glycerol, 5 mM MgCl2, 1 mM EDTA, 0.3 mg/mL BSA, 30 min at 20 C
T1 sequence: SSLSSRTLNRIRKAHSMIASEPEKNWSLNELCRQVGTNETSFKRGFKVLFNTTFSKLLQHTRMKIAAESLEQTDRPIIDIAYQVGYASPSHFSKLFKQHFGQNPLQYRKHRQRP

In the case of “AAAAATAGACGACCCGATCTATTCAAGCTTGTTTAAAATAACAATCATAAACGTCGATTCACGCTCTTTTTATGCCTTATTCAGTTAGCAGGTAAAAGACAGAATCGGCACTATAAGTTCAATATGGATACCACAG (double strand) [Probe 5 (frpA)]”, the binding is reported as “binds”.
For “TAAAACAAAACCAGAAAATAAAATAAAAATCAACAAAATTAAATGCTTAATTTTAATTAAGTTC (double strand) [Probe 4 (frpA, 6xAAAAT low complexity region)]”, the binding was “no binding”.

same assay, conditions: 1 mM Tris pH 7.5, 155 mM KCl, 0.1 mM DTT, 5% glycerol, 5 mM MgCl2, 1 mM EDTA, 0.3 mg/mL BSA, 30 min at 20 C, scale: free probe band ratio to no-protein control

“TATTGAGCAATTGAGGATTAATGAATGTGGCCACTAATATACTAATACCGATTGCTGAGTGGTGGGCTAGTTACGACTAAACGCGACGATTTTATACCTAATTGCGTTAGCGATGGCATGCATATTCAGCAAAAATAGCCTCCATTTATG (double strand) [Probe 12 (frpC)]” was tested, and the binding signal was 0.7.
